Source: US20200216536A1 (published 2020)
“And” between values parts separate entries of the source, which are not always exact repeats. Equal values may be shown once.

B1: canine IgG.B Fc (CH2-CH3) variant M428A (Fc fusion)
chain: APEMLGGPSVFIFPPKPKDTLLIARTPEVTCVVVDLDPEDPEVQISWFVDGKQMQTAKTQPREEQFNGTYRVVSVLPIGHQDWLKGKQFTCKVNNKALPSPIERTISKARGQAHQPSVYVLPPSREELSKNTVSLTCLIKDFFPPDIDVEWQSNGQQEPESKYRTTPPQLDEDGSYFLYSKLSVDKSRWQRGDTFICAVAHEALHNHYTQESLSHSPGK
B2: canine IgG.B Fc (CH2-CH3) variant N434A (Fc fusion)
chain: APEMLGGPSVFIFPPKPKDTLLIARTPEVTCVVVDLDPEDPEVQISWFVDGKQMQTAKTQPREEQFNGTYRVVSVLPIGHQDWLKGKQFTCKVNNKALPSPIERTISKARGQAHQPSVYVLPPSREELSKNTVSLTCLIKDFFPPDIDVEWQSNGQQEPESKYRTTPPQLDEDGSYFLYSKLSVDKSRWQRGDTFICAVMHEALHAHYTQESLSHSPGK
B3: canine IgG.B Fc (CH2-CH3) variant D378A (Fc fusion)
chain: APEMLGGPSVFIFPPKPKDTLLIARTPEVTCVVVDLDPEDPEVQISWFVDGKQMQTAKTQPREEQFNGTYRVVSVLPIGHQDWLKGKQFTCKVNNKALPSPIERTISKARGQAHQPSVYVLPPSREELSKNTVSLTCLIKDFFPPDIAVEWQSNGQQEPESKYRTTPPQLDEDGSYFLYSKLSVDKSRWQRGDTFICAVMHEALHNHYTQESLSHSPGK
B4: canine IgG.B Fc (CH2-CH3) variant Q311A (Fc fusion)
chain: APEMLGGPSVFIFPPKPKDTLLIARTPEVTCVVVDLDPEDPEVQISWFVDGKQMQTAKTQPREEQFNGTYRVVSVLPIGHADWLKGKQFTCKVNNKALPSPIERTISKARGQAHQPSVYVLPPSREELSKNTVSLTCLIKDFFPPDIDVEWQSNGQQEPESKYRTTPPQLDEDGSYFLYSKLSVDKSRWQRGDTFICAVMHEALHNHYTQESLSHSPGK
B5: canine IgG.B Fc (CH2-CH3) variant N434Y (Fc fusion)
chain: APEMLGGPSVFIFPPKPKDTLLIARTPEVTCVVVDLDPEDPEVQISWFVDGKQMQTAKTQPREEQFNGTYRVVSVLPIGHQDWLKGKQFTCKVNNKALPSPIERTISKARGQAHQPSVYVLPPSREELSKNTVSLTCLIKDFFPPDIDVEWQSNGQQEPESKYRTTPPQLDEDGSYFLYSKLSVDKSRWQRGDTFICAVMHEALHYHYTQESLSHSPGK
B6: canine IgG.B Fc (CH2-CH3) variant A254S (Fc fusion)
chain: APEMLGGPSVFIFPPKPKDTLLISRTPEVTCVVVDLDPEDPEVQISWFVDGKQMQTAKTQPREEQFNGTYRVVSVLPIGHQDWLKGKQFTCKVNNKALPSPIERTISKARGQAHQPSVYVLPPSREELSKNTVSLTCLIKDFFPPDIDVEWQSNGQQEPESKYRTTPPQLDEDGSYFLYSKLSVDKSRWQRGDTFICAVMHEALHNHYTQESLSHSPGK
B7: canine IgG.B Fc (CH2-CH3) variant H433A (Fc fusion)
chain: APEMLGGPSVFIFPPKPKDTLLIARTPEVTCVVVDLDPEDPEVQISWFVDGKQMQTAKTQPREEQFNGTYRVVSVLPIGHQDWLKGKQFTCKVNNKALPSPIERTISKARGQAHQPSVYVLPPSREELSKNTVSLTCLIKDFFPPDIDVEWQSNGQQEPESKYRTTPPQLDEDGSYFLYSKLSVDKSRWQRGDTFICAVMHEALANHYTQESLSHSPGK
B8: canine IgG.B Fc (CH2-CH3) variant K315A (Fc fusion)
chain: APEMLGGPSVFIFPPKPKDTLLIARTPEVTCVVVDLDPEDPEVQISWFVDGKQMQTAKTQPREEQFNGTYRVVSVLPIGHQDWLAGKQFTCKVNNKALPSPIERTISKARGQAHQPSVYVLPPSREELSKNTVSLTCLIKDFFPPDIDVEWQSNGQQEPESKYRTTPPQLDEDGSYFLYSKLSVDKSRWQRGDTFICAVMHEALHNHYTQESLSHSPGK
B9: canine IgG.B Fc (CH2-CH3) variant P307A (Fc fusion)
chain: APEMLGGPSVFIFPPKPKDTLLIARTPEVTCVVVDLDPEDPEVQISWFVDGKQMQTAKTQPREEQFNGTYRVVSVLAIGHQDWLKGKQFTCKVNNKALPSPIERTISKARGQAHQPSVYVLPPSREELSKNTVSLTCLIKDFFPPDIDVEWQSNGQQEPESKYRTTPPQLDEDGSYFLYSKLSVDKSRWQRGDTFICAVMHEALHNHYTQESLSHSPGK
B10: canine IgG.B Fc (CH2-CH3) variant L252A (Fc fusion)
chain: APEMLGGPSVFIFPPKPKDTLAIARTPEVTCVVVDLDPEDPEVQISWFVDGKQMQTAKTQPREEQFNGTYRVVSVLPIGHQDWLKGKQFTCKVNNKALPSPIERTISKARGQAHQPSVYVLPPSREELSKNTVSLTCLIKDFFPPDIDVEWQSNGQQEPESKYRTTPPQLDEDGSYFLYSKLSVDKSRWQRGDTFICAVMHEALHNHYTQESLSHSPGK
B11: canine IgG.B Fc (CH2-CH3) variant T250A (Fc fusion)
chain: APEMLGGPSVFIFPPKPKDALLIARTPEVTCVVVDLDPEDPEVQISWFVDGKQMQTAKTQPREEQFNGTYRVVSVLPIGHQDWLKGKQFTCKVNNKALPSPIERTISKARGQAHQPSVYVLPPSREELSKNTVSLTCLIKDFFPPDIDVEWQSNGQQEPESKYRTTPPQLDEDGSYFLYSKLSVDKSRWQRGDTFICAVMHEALHNHYTQESLSHSPGK
B12: canine IgG.B Fc (CH2-CH3) variant Y436A (Fc fusion)
chain: APEMLGGPSVFIFPPKPKDTLLIARTPEVTCVVVDLDPEDPEVQISWFVDGKQMQTAKTQPREEQFNGTYRVVSVLPIGHQDWLKGKQFTCKVNNKALPSPIERTISKARGQAHQPSVYVLPPSREELSKNTVSLTCLIKDFFPPDIDVEWQSNGQQEPESKYRTTPPQLDEDGSYFLYSKLSVDKSRWQRGDTFICAVMHEALHNHATQESLSHSPGK
B13: canine IgG.B Fc (CH2-CH3) variant T256A (Fc fusion)
chain: APEMLGGPSVFIFPPKPKDTLLIARAPEVTCVVVDLDPEDPEVQISWFVDGKQMQTAKTQPREEQFNGTYRVVSVLPIGHQDWLKGKQFTCKVNNKALPSPIERTISKARGQAHQPSVYVLPPSREELSKNTVSLTCLIKDFFPPDIDVEWQSNGQQEPESKYRTTPPQLDEDGSYFLYSKLSVDKSRWQRGDTFICAVMHEALHNHYTQESLSHSPGK
B14: canine IgG.B Fc (CH2-CH3) YTE variant (L252Y/A254T/T256E) (Fc fusion)
chain: APEMLGGPSVFIFPPKPKDTLYITREPEVTCVVVDLDPEDPEVQISWFVDGKQMQTAKTQPREEQFNGTYRVVSVLPIGHQDWLKGKQFTCKVNNKALPSPIERTISKARGQAHQPSVYVLPPSREELSKNTVSLTCLIKDFFPPDIDVEWQSNGQQEPESKYRTTPPQLDEDGSYFLYSKLSVDKSRWQRGDTFICAVMHEALHNHYTQESLSHSPGK
B15: canine IgG.B Fc (CH2-CH3) variant T286A (Fc fusion)
chain: APEMLGGPSVFIFPPKPKDTLLIARTPEVTCVVVDLDPEDPEVQISWFVDGKQMQAAKTQPREEQFNGTYRVVSVLPIGHQDWLKGKQFTCKVNNKALPSPIERTISKARGQAHQPSVYVLPPSREELSKNTVSLTCLIKDFFPPDIDVEWQSNGQQEPESKYRTTPPQLDEDGSYFLYSKLSVDKSRWQRGDTFICAVMHEALHNHYTQESLSHSPGK
B16: canine IgG.B Fc (CH2-CH3) variant I308A (Fc fusion)
chain: APEMLGGPSVFIFPPKPKDTLLIARTPEVTCVVVDLDPEDPEVQISWFVDGKQMQTAKTQPREEQFNGTYRVVSVLPAGHQDWLKGKQFTCKVNNKALPSPIERTISKARGQAHQPSVYVLPPSREELSKNTVSLTCLIKDFFPPDIDVEWQSNGQQEPESKYRTTPPQLDEDGSYFLYSKLSVDKSRWQRGDTFICAVMHEALHNHYTQESLSHSPGK
B17: canine IgG.B Fc (CH2-CH3) variant N434H (Fc fusion)
chain: APEMLGGPSVFIFPPKPKDTLLIARTPEVTCVVVDLDPEDPEVQISWFVDGKQMQTAKTQPREEQFNGTYRVVSVLPIGHQDWLKGKQFTCKVNNKALPSPIERTISKARGQAHQPSVYVLPPSREELSKNTVSLTCLIKDFFPPDIDVEWQSNGQQEPESKYRTTPPQLDEDGSYFLYSKLSVDKSRWQRGDTFICAVMHEALHHHYTQESLSHSPGK
B18: canine IgG.B Fc (CH2-CH3) variant N434S (Fc fusion)
chain: APEMLGGPSVFIFPPKPKDTLLIARTPEVTCVVVDLDPEDPEVQISWFVDGKQMQTAKTQPREEQFNGTYRVVSVLPIGHQDWLKGKQFTCKVNNKALPSPIERTISKARGQAHQPSVYVLPPSREELSKNTVSLTCLIKDFFPPDIDVEWQSNGQQEPESKYRTTPPQLDEDGSYFLYSKLSVDKSRWQRGDTFICAVMHEALHSHYTQESLSHSPGK
B19: canine IgG.B Fc (CH2-CH3) variant Q285A (Fc fusion)
chain: APEMLGGPSVFIFPPKPKDTLLIARTPEVTCVVVDLDPEDPEVQISWFVDGKQMATAKTQPREEQFNGTYRVVSVLPIGHQDWLKGKQFTCKVNNKALPSPIERTISKARGQAHQPSVYVLPPSREELSKNTVSLTCLIKDFFPPDIDVEWQSNGQQEPESKYRTTPPQLDEDGSYFLYSKLSVDKSRWQRGDTFICAVMHEALHNHYTQESLSHSPGK
B20: canine IgG.B Fc (CH2-CH3) variant G309A (Fc fusion)
chain: APEMLGGPSVFIFPPKPKDTLLIARTPEVTCVVVDLDPEDPEVQISWFVDGKQMQTAKTQPREEQFNGTYRVVSVLPIAHQDWLKGKQFTCKVNNKALPSPIERTISKARGQAHQPSVYVLPPSREELSKNTVSLTCLIKDFFPPDIDVEWQSNGQQEPESKYRTTPPQLDEDGSYFLYSKLSVDKSRWQRGDTFICAVMHEALHNHYTQESLSHSPGK

Legend:
[1] = target: T1, canine FcRn (UniProtKB-E2ROL6 [FcRn] and UniProtKB-E2RN10 [canine beta-2-microglobulin]) (canine); test: SPR Biacore 8K, pH 5.5, Fc captured on BSA via SASA tag, FcRn 400 nM
T1 construct: Soluble analyte injected in SPR

[2] = target: T1, canine FcRn (UniProtKB-E2ROL6 [FcRn] …); test: SPR Biacore 8K, pH 5.5, Fc captured on BSA via SASA tag, FcRn 200 nM
[3] = target: T1, canine FcRn (UniProtKB-E2ROL6 [FcRn] …); test: SPR Biacore 8K, pH 5.5, Fc captured on BSA via SASA tag, FcRn 100-800 nM

| Binder | Kd [1] | kon [1] | koff [1] | also measured |
| --- | --- | --- | --- | --- |
| B1 | 723 nM and 1670 nM | 234000 M⁻¹ s⁻¹ and 318000 M⁻¹ s⁻¹ |  |  |
| B2 | 457 nM and 494 nM | 518000 M⁻¹ s⁻¹ and 966000 M⁻¹ s⁻¹ | 0.237 s⁻¹ and 0.477 s⁻¹ | Kd [2]: 573 nM and 629 nM; koff [2]: 0.156 s⁻¹ and 0.164 s⁻¹; kon [2]: 272000 M⁻¹ s⁻¹ and 261000 M⁻¹ s⁻¹ |
| B3 | 673 nM and 592 nM | 272000 M⁻¹ s⁻¹ and 306000 M⁻¹ s⁻¹ | 0.183 s⁻¹ and 0.181 s⁻¹ |  |
| B4 | 368 nM and 370 nM | 2.43e+06 M⁻¹ s⁻¹ and 1.34e+06 M⁻¹ s⁻¹ | 0.894 s⁻¹ and 0.496 s⁻¹ |  |
| B5 |  |  |  | Kd [3]: 29.1 nM; koff [3]: 0.0151 s⁻¹; kon [3]: 520000 M⁻¹ s⁻¹; Kd [2]: 15.9 nM; koff [2]: 0.00968 s⁻¹; kon [2]: 607000 M⁻¹ s⁻¹ |
| B6 | 340 nM and 317 nM |  |  |  |
| B7 | 266 nM and 359 nM |  | 0.229 s⁻¹ and 0.0997 s⁻¹ |  |
| B8 | 422 nM and 548 nM |  |  |  |
| B9 | 325 nM and 338 nM |  |  |  |
| B10 | 292 nM and 240 nM |  |  |  |
| B11 | 335 nM and 328 nM |  |  |  |
| B12 | 393 nM and 876 nM |  | 0.407 s⁻¹ and 0.213 s⁻¹ |  |
| B13 | 447 nM and 298 nM |  |  |  |
| B14 |  |  |  | Kd [3]: 184 nM; koff [3]: 0.046 s⁻¹; kon [3]: 250000 M⁻¹ s⁻¹ |
| B15 | 464 nM and 569 nM | 422000 M⁻¹ s⁻¹ and 533000 M⁻¹ s⁻¹ | 0.196 s⁻¹ and 0.304 s⁻¹ |  |
| B16 | 472 nM and 563 nM | 357000 M⁻¹ s⁻¹ and 345000 M⁻¹ s⁻¹ | 0.169 s⁻¹ and 0.194 s⁻¹ |  |
| B17 |  |  |  | Kd [3]: 247 nM; koff [3]: 0.102 s⁻¹; kon [3]: 411000 M⁻¹ s⁻¹ |
| B18 |  |  |  | Kd [2]: 924 nM and 1050 nM; koff [2]: 0.207 s⁻¹ and 0.209 s⁻¹; kon [2]: 225000 M⁻¹ s⁻¹ and 199000 M⁻¹ s⁻¹ |
| B19 | 341 nM and 257 nM |  |  |  |
| B20 | 245 nM and 294 nM |  |  |  |
